From publication PMC10847457 (Cell Discovery, 2024)

B1: PW5-5 (antibody, V domains shown)
VH: QVQLVQSGAEVKKPGASVKVSCKTSGYTFTDHYMYWVRQAPGQGLEWMGVINPDAGSVTYAQKFQGRVTMTSDTSTSTVYMELSSLRSEDTAVYYCARDLFFIPAANSFDYWGQGTLVTVSS
VL: EIVLTQSPATLSLSPGERATLSCRASQSVSSYLAWYQQKPGQAPRLLIYDATNRATGIPARFSGSGSGTDFTLTISSLEPEDFAVYYCQHRSNWPRMFTFGQGTKLEIK
notes: also called PW5-5 IgG; IgG PW5-5
B2: PW5-570 (antibody, V domains shown)
VH: QMQLVQSGPEVRKPGTSVKVSCRASVFSFDTSAVQWVRQARGQPLEWIGWIVFGSSNTDYAQKFRDRVTITGDMSTGTAYMELSSLRSEDTAVYYCAAPHCNRTNCHDGFDIWGQGTVVTVSS
VL: EIVLTQSPGTLSLSPGERATLSCRASQSVRSGYLGWYQQKPGQAPRLLIYGAYNRATGIPDRFRGSGSGTDFTLTISRLEPEDFVVYYCQQYDRSPWTFGQGTKVEIK
notes: also called PW5-570 IgG; PW5-570 immunoglobulin G
B3: PW5-535 (antibody, V domains shown)
VH: EVRLVESGGGLVQPGGSLRLSCAASGFTFRNYDIHWVRQTTGKGLEWVSAVGTSGDTYYLDSVKGRFTISREDAKKSVYLQMNSLRAGDTAMYYCVRGDASPDNIYYYMDVWGTGTRVIVSS
VL: DIQVTQSPSPLSASVGDRVTITCRASQTIGKYLNWYHQIPGKAPKLLISAASTLHSGVPSRFSGRGSGTDFTLTISSLQPEDFGTYYCQQSYSSPPWTFGQGTKVEIK

Each binder was assayed against SARS-CoV-2 S trimer (stabilized soluble S2P) (SARS-CoV-2, ancestral (WT, Wuhan-Hu-1 …, UniProt P0DTC2, stabilised)) (assay: ELISA). Conditions: both partners purified.

Binder | binding result
B1 | binds
B2 | binds
B3 | binds
